B1: huHMFG1 scFv mutant 4.9M (stability engineered huHMFG1-scFv/Clone 4.9) (scFv)
scFv: QVQLVQSGAEVKKPGASVKVSCKASGYTFSAYWIEWVRQAPGKGLEWVGEILPGSNNSRYNEKFKGRVTVTADTSTNTAYMELSSLRSEDTAVYYCARSYDFAWFAYWGQGTLVTVSSGGGGSGGGGSGGGGSDIQMTQSPSSLSASVGDRVTITCKSSQSLLYSSNQKIYLAWYQQKPGKAPKLLIYWASTRESGVPSRFSGSGSGTDFTFTISSLQPEDIATYYCQQYYRYPRTFGQGTKVEIKR
notes: also called scFv 4.9M; HMFG1-scFv 4.9M
B2: diabody Db 4.9M (other)
chain 1: QVQLVQSGAEVKKPGASVKVSCKASGYTFSAYWIEWVRQAPGKGLEWVGEILPGSNNSRYNEKFKGRVTVTADTSTNTAYMELSSLRSEDTAVYYCARSYDFAWFAYWGQGTLVTVSSGGGGSDIQMTQSPSSLSASVGDRVTITCKSSQSLLYSSNQKIYLAWYQQKPGKAPKLLIYWASTRESGVPSRFSGSGSGTDFTFTISSLQPEDIATYYCQQYYRYPRTFGQGTKVEIKR
chain 2: B2 chain 1
notes: also called diabody 4.9

Tests used:
[1] = target: T1, MUC-1 gene product, the membrane mucin glycoprotein (polymorphic epithelial mucin or PEM) (human, UniProt P15941 24-1255); assay: flow cytometry equilibrium binding on MCF7 cells, non-linear regression; after pre-incubation in PBS for 1 h at 37 C
T1 construct: whole, on cells; SKOV-3 is also named in the method
Method: (§1) Bound antibodies were detected under the same conditions, as described in the section entitled binding assays above.
(§2) The median fluorescence intensity (MFI) was determined as described in the binding assays section above and the background fluorescence was subtracted. Equilibrium constants were determined by using the Marquardt-Levenberg algorithm for non-linear regression with the GraphPad Prism version 3.0a for Macintosh (GraphPad Software, San Diego, Calif.).

[2] = target: T1, MUC-1 gene product, the membrane mucin …; assay: flow cytometry equilibrium binding on MCF7 cells; after pre-incubation in PBS for 1 h at 37 C against no pre-incubation
Method: as §1, §2

[3] = target: T1, MUC-1 gene product, the membrane mucin …; assay: flow cytometry equilibrium binding on MCF7 cells, non-linear regression; 0 h at 37 C
Method: as §1
After two final washing steps in 200 μl of FACS buffer, the cells were fixed in PBS buffer containing 2% paraformaldehyde for 15 minutes at room temperature and analysed by flow cytometry.
as §2

[4] = target: T1, MUC-1 gene product, the membrane mucin …; assay: flow cytometry equilibrium binding on MCF7 cells; reference scFv 4.9M
Method: as §1, §2

T1 sequence (P15941 24-1255): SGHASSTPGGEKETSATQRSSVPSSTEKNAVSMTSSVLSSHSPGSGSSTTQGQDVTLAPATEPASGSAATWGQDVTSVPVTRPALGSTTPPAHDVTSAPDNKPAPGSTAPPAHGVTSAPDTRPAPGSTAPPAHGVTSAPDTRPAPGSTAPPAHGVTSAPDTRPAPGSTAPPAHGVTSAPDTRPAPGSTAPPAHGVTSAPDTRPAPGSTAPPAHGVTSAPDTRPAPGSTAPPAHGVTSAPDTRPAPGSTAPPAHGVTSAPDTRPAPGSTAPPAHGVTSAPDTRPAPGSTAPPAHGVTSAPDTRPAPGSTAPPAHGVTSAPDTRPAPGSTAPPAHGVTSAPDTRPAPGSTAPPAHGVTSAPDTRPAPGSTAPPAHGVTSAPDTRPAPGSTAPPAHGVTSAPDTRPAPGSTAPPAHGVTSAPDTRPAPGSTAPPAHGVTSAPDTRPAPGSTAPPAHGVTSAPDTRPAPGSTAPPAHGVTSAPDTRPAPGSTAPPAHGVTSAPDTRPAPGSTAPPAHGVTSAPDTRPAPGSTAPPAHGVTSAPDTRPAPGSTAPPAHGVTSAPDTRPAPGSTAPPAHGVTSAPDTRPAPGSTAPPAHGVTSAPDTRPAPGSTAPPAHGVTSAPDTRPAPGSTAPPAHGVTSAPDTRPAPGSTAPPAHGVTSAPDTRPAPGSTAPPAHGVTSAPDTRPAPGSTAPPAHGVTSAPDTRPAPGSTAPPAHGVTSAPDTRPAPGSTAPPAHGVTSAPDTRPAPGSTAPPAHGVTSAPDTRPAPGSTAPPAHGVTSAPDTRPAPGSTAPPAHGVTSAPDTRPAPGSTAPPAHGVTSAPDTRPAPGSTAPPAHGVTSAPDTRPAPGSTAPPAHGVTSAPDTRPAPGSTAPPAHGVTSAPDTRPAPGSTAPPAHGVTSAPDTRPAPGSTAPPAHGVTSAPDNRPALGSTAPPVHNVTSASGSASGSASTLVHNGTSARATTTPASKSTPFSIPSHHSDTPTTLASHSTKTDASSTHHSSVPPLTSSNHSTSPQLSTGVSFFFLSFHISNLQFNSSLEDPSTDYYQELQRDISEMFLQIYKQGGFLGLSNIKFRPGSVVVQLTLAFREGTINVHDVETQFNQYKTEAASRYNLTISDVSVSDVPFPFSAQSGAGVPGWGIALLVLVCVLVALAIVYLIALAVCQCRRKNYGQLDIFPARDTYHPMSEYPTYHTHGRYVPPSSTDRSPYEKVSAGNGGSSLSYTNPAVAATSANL

Binder | Kd [1] | fold decrease in antigen binding affinity after 1 hour at 37° C. in PBS [2] | Kd [3] | fold higher affinity than the corresponding scFv 4.9M [4]
B1 | 195 nM | 1.9 fold | 103 nM | 
B2 |  |  | 8 nM | 13 fold

— patent publication US20060193849A1 (ANTISOMA, published 2006)
